The results in this text go back to paper PMC4328881 (Cytokine, 2015).

This experiment addresses fibronectin (UniProt P02751 32-2477). As to the kind of experiment: SPR. (SPR reads the build-up and loss of mass on a sensor chip optically.)

B1: 22 kDa (196 amino acids) OSM (natural protein, human, UniProt P13725 26-221, looked up)
chain: AAIGSCSKEYRVLLGQLQKQTDLMQDTSRLLDPYIRIQGLDVPKLREHCRERPGAFPSEETLRGLGRRGFLQTLNATLGCVLHRLADLEQRLPKAQDLERSGLNIEDLEKLQMARPNILGLRNNIYCMAQLLDNSDTAEPTKAGRGASQPPTPTPASDAFQRKLEGCRFLHGYHRFMHSVGRVFSKWGESPNRSRR
One may read the Kd as the constant that tells how readily two partners part at equilibrium. Read a high Kd as lower affinity. As to B1, the affinity, expressed as Kd, was 2600 nM.
